B1: Far upstream element-binding protein 1, residues 184 to 257; numbered along this chain, Q96AE4 (parent)
chain: GNAVQEIMIPASKAGLVIGKGGETIKQLQERAGVKMVMIQDGPQNTGADKPLRITGDPYKVQQAKEMVLELIRD

Variants of: B1
Experiment: abundance fitness (aPCA) (normalised: wild type 0, dead -1); higher = more abundant; growth selection in yeast, the domain comes from the species named
Settings: Homo sapiens

Abundance fitness, by site and new letter:
I39: F 0.035, P -0.061, E -0.001, D -0.105, C -0.051, V 0.006, R 0.006, M 0.014, L -0.008, W -0.096, G -0.028, N 0.014, K 0, Y -0.08, S -0.02, H -0.095, T -0.088, Q -0.032
A32: Y -0.016, V -0.062, D -0.412, M -0.009, K -0.171, E -0.201, H 0.031, W -0.057, L -0.017, C 0.006, S -0.013, I -0.034, F 0.054, G -0.075, T 0.02, P -0.706, N 0.029, Q -0.077, R -0.367
T24: H -0.029, G -0.008, V -0.029, P -0.206, E -0.08, Y -0.116, F -0.101, C -0.061, Q -0.012, R -0.013, A -0.075, D -0.208, N -0.075, M 0.002, I -0.11, S -0.078, L -0.099, K 0.007, W -0.224
Q40: D -0.008, C -0.024
K26: G -0.098, H -0.198, R -0.021, L -0.087, V -0.157, P -0.447, E -0.093, Y -0.041, N -0.09, I 0.013, M -0.122, D -0.111, F -0.129, T -0.066, C -0.179
R31: E 0, Q 0.017, L -0.125, V -0.113, P -0.484, G -0.106, Y -0.168, H 0.032, T -0.042, D -0.028, C -0.084, F -0.155, K 0.016, S -0.008, M -0.096, A -0.036, W -0.221, I -0.12
V34: F -1.35, C -0.086, T -0.232, N -0.68, K -0.946, L -0.567, R -0.974, Q -0.833, E -0.753, D -0.807, I -0.432, G -0.767, M -0.808, Y -1.11, P -0.918, H -0.87, A -0.153, W -1.35, S -0.639
G22: H -0.127, M -0.115, F -0.145, Q -0.075, A 0.003, P -0.328, S -0.114, Y -0.237, I -0.417, V -0.261, L -0.157, T -0.29, K -0.14, R -0.116, E -0.056, C -0.106
E30: L -0.026, T -0.071, V -0.029, Q -0.035, I -0.03, R 0.01, Y -0.114, S -0.007, K -0.01, D -0.024, H -0.016, A -0.039, G -0.122, M 0.025
I25: C -0.267, D -0.359, V -0.125, E -0.638, L 0.002, M 0.03, G -0.624, P -0.64, A -0.32, R -0.316, T -0.361, K -0.371, H -0.324, F -0.158, S -0.387, Y -0.332
K20: W -0.166, T -0.035, P -0.026, S -0.042, Y -0.023, V -0.031
M38: R -0.444, W -0.032, T -0.21, H -0.13, P -0.287, V -0.007, F 0.037, I -0.036, S -0.205, Y -0.094, A -0.183, G -0.324, E -0.163, C -0.166, L 0.035, D -0.392
G21: F -0.05, D -0.024, P -0.493, H -0.015, M -0.033, N 0.05, V -0.219, R 0.003, S -0.033, K 0.015, T -0.05, I -0.278, Q -0.028, E -0.059, C -0.076, L -0.1
L28: Y -0.338, V -0.155, R -0.78, A -0.467, D -0.692, M 0.026, F -0.225, C -0.399, Q -0.612, G -0.825, I -0.026, T -0.315, P -0.77, W -0.284, S -0.639, K -0.791, E -0.63, N -0.415
Q29: D -0.602, T -0.247, Y -0.67, L -0.45, V -0.351, H -0.557, P -0.748, E -0.026, R -0.137, A -0.018, S -0.029, I -0.342, K -0.189, G -0.142, C -0.2, M -0.044, W -0.345
Q27: H -0.008, D -0.005, C -0.08, G -0.013, W -0.05, T -0.081, A -0.05, S -0.021, I -0.019, L -0.083, K 0.032, R -0.011, M -0.008, N -0.012, V -0.095, Y -0.129, E -0.001
K35: D -0.07, M -0.154, Y -0.248, N 0.023, I -0.158, R -0.007, L -0.118, H 0.003, T -0.093, V -0.124, P -0.472, C -0.11, S -0.116, F -0.261, G -0.071, E 0.003, Q 0.015, W -0.308
E23: T 0.041, A 0.042, D -0.037, S 0.043, H 0.072, W -0.087, I -0.051, M -0.041, Q -0.021, Y -0.067, R 0.136, C -0.011, L -0.051, F -0.101, V -0.063, N -0.026, P -0.434, G 0.018, K 0.062
V37: S -0.048, I -0.049, N -0.065, H -0.178, Q -0.025, M -0.07, A -0.054, K 0.039, T -0.026, E -0.006, G -0.172, W -0.059, C 0.009, R -0.019, P -0.773
M36: N -0.712, R -0.747, W -1, K -0.78, S -0.556, Q -0.656, H -0.81, T -0.585, A -0.194, P -0.789, D -0.709, G -0.67, V -0.231, Y -0.786, I -0.053, C -0.239, E -0.582
G33: D -0.083, V -0.596, R -0.119, C -0.125, H -0.1, A -0.171, M -0.137, S -0.123, K -0.097, P -0.801, Y -0.534, N -0.063, E -0.081, Q -0.057, F -0.43, I -1.12, L -0.354, W -0.807, T -0.29
